Target: Flag-eIF4E tagged with homotetrameric tag 6 (HOTag6), the eIF4E part of TORSEL (UniProt P06730)
Chain of UniProt P06730 (P06730 whole entry): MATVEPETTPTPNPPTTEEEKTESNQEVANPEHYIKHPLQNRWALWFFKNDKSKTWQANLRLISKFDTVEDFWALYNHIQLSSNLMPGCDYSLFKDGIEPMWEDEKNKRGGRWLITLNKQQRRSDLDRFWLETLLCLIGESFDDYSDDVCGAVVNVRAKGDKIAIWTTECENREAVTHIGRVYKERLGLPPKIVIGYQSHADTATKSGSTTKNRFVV

TORSEL fluorescent puncta in living U2OS cells when mTORC1 is suppressed by serum deprivation, EAA starvation or rapamycin; diffuse under normal culture conditions; 50-90% of cells with visible puncta: 50 to 90 % of cells
Substance: HA-tagged 4EBP1 tagged with mCherry and homohexameric tag 3 (HOTag3), the 4EBP1 part of TORSEL (from UniProt Q13541 1-118) (natural protein)

From paper PMC11143692
